B1: MPK130 (antibody, V domains shown)
VH: EVQLVESGGGLVKPGGSLTLSCEASGFSISGYYMIWVRQAPGKGLEWVSSISASDTYIDYAVSVQGRFTISRHNTKNSLYLQMSSLRVEDTGVYYCTREKVPSPGPFDCWGQGTLVTVSS
VL: QSVLTQPPSVSGAPGQRITISCTGTSSNIGAGYDVHWYQHLPGAAPRLLIYVNTNRPSGVPDRFSGARSGTSASLAITGLQAEDEADYYCQSYDRSLGGWAFGEGTKVTVL
notes: VH and VL only
B2: MPK102 (antibody, V domains shown)
VH: EVQLVESGGGLVKPRGSLRLSCAASGFTFSGYFMIWIRQAPGKGLEWVSYISGSSTYTNYADSVKGRFTISRDNGRNTLYLQMNSLRADDTAVYYCATEQTPSPGPFDLWGQGTLVTVSS
VL: QSVLTQPPSVSGAPGQRVTISCTGTSSNIGAGYDVHWYQQFPGTSPKLLIFRNTNRPSGVSDRFSGSKSGSSASLAIAGLQAEDESDYYCQSYDRGLDGWVFGGGTRLTVL
notes: VH and VL only
B3: MPK18 (antibody, V domains shown)
VH: EVQLVESGGGLVKPGGSLRLSCAASGFTISGYYMIWIRQAPGKGLEWISYISGSSSYTNFGASVKGRFTISRDNGQNTVHLQMTNLRADDTALYYCATEQTPSPGPFDLWGQGTLVTVSS
VL: QSVVTQPPSVSGAPGQRVTISCSGTSSNIGAGYDVHWYQQFPGTSPKLLISRNFNRPSGVPARFSGSKSGSSASLAIAGLQAEDEADYYCQSYDRSLGGWVFGGGTKVTVL
notes: VH and VL only
B4: MPK30-v1 (antibody, V domains shown)
VH: EVQLVESGGGLVKPGGSLRLSCAASGFTISGYYMIWIRQAPGKGLEWISFISASSSYINYADSVRGRFTISRDNGRSTVYLQMNSLRPEDTAVYYCATEQVPSPGPFDLWGQGTLVTVSS
VL: QSVLTQPPSVSGAPGQRVTISCTGTSSNIGAGYDVHWYQQFPGRSPKLLIYRNTNRPSGVPDRFSGSKSGSSASLAIAGLQAEDEADYYCQSYDRSLDGWVFGGGTTLTVL
notes: VH and VL only
B5: MPK36-v3 (antibody, V domains shown)
VH: EVQLVESGGGLVKPGGSLRLSCAASFTISGYYMIWIRQAPGKGLEWISYISGSSTYTNYADSVKGRFTISRDNGQNTLYLHMTSLRADDTALYYCATEQTPSPGPFDLWGQGTLVTVSS
VL: QTVVTQPPSVSGAPGQRVTISCSGTSSNIGAGYDVHWYQQFPGTSPKLLIYRNFNRPSGVPDRFSGSKSGSSASLAIAGLQAEDEADYYCQSYDKSLDGWVFGGGTKVTVL
notes: VH and VL only
B6: MPK67 (antibody, V domains shown)
VH: EVQLVESGGGLVKPGGSLRLSCAASGFTISGYYMIWIRQAPGKGLEWISYISGSSSYTNYGASVKGRFTISRDNGQNTVHLQMTNLRADDTALYYCATEQTPSPGPFDLWGQGTLVTVSS
VL: QSVLTQPPSVSGAPGQRVTISCSGTSSNIGAGYDVHWYQQFPGTSPKLLISRNFNRPSGVPARFSGSKSGSSASLAIAGLQPEDEADYYCQSYDRSLGGWVFGGGTKVTVL
notes: VH and VL only
B7: MPK99 (antibody, V domains shown)
VH: EVQLVESGGGLVKPGGSLRLSCAASGFTISGYYMIWIRQSPGKGLEWISDISASSSYTDYADSVKGRFTISRDNGQNTVYLQMNSLRAEDTAVYYCATEQVPSPGPFDLWGQGTLVTVSS
VL: QSVVTQPPSVSGAPGLRVTISCSGTSSNIGRGYDVHWYQQFPGQSPKLLIYRNTNRPSGVPDRFSGFKSGSSASLAIAGLQAEDEADYYCQSYDRSLGGWVFGGGTRLIVL
notes: VH and VL only
B8: MPK129 (antibody, V domains shown)
VH: EVQLVESGGGLVKPGGSLRLSCEASGFSLSGYYMIWIRQAPGKGLEWISSISGSGNYIDYADSVKGRFTISRDNGHNTLYLQMNSLRVEDTAVYYCATEQTPSPGPFDHWGQGTLVTVSS
VL: QTVVTQPPSVSGAPGQRVTISCTGTSSNIGTGYDVHWYQQFPGTSPKLLIYRNTNRPSGVPDRFSGSKSGSSASLAIAGLQAEDEADYYCQSYDRSVSGWVFGGGTKLTVL
notes: VH and VL only
B9: MPK132-v1 (antibody, V domains shown)
VH: EVQLVESGGGLVKPGGSLRLSCEASGISLSGYYMIWIRQAPGKGLEWISSISSSSNYIDYADSVKGRFTISRHNGQNTLYLQMNSLRVEDTAVYFCATEQTPSPGPFELWGQGILVTVSS
VL: QSVVTQPPSVSGAPGQRVTIFCTGTSSNIGTGYDVHWYQQFPGTSPKLLIYRNTNRPSGVPDRFSGSKSGSSASLAIAGLQAEDEADYYCQSYDRSVSGWVFGGGTKLTVL
notes: VH and VL only
B10: MPK9 (antibody, V domains shown)
VH: EVQLVESGGGLVKPGGSLRLSCAASGFTISGYGMSWFRQAPGKGLEWVSSISASSSYIYYADSTKGRFTISRDNGKQSLYLQMNSLRAEDTAVYYCATSPIEPPYFDLWGRGTLVTVSS
VL: QSVLTQPPSVSGAPGQRVTISCTGSSSNIGAGYDVHWYQQLPGKAPKLLIYGNNNRPSGVPDRFSGSNSGASASLAITGLQAEDEADYFCQSYDRRLSGPVFGRGTKLTVL
notes: VH and VL only
B11: MPK73 (antibody, V domains shown)
VH: EVQLVESGGGLVKPGGSLTLSCAASGFSISGYGMNWVRQAPGRGLEWVASISASSTYIYYADSMKGRFTISRDNGKTSLYLQMKSLRAEDTAVYYCARAPIEPPYFDLWGRGTLVTVSS
VL: QSVLTQPPSVSGAPGQRVTISCTGSNSNIGAGYDVHWYQHLPGKAPKVLIYGNNNRPSGVPDRFSGSNSGASASLAISGLQAEDEADYFCQSYDRRLSGPIFGGGTKLTVL
notes: VH and VL only
B12: MPK142-v1 (antibody, V domains shown)
VH: EVQLVESGGGLVEPGGSLRLSCAASGFTISGYGMSWVRQAPGKGLEWVSSISASSSYIYYGDAMKGRITISRDNGWNSMYLQMNSLRTEDTAVYYCATAPIEPPYFDLWGRGTLVTVSS
VL: QSVLTQPPSVSGAPGQRVTISCTGSSSNIGAGYDVHWYQQFPGKAPKVLIYGNNNRPSGVPDRFAASNSGASASLAITGLQAEDEAAYFCQSYDRRLSGPVFGGGTKLTVL
notes: VH and VL only
B13: MPK127 (antibody, V domains shown)
VH: QVQLVISGGGLVKPGGSLRLSCAASGFRIDSFSLNWVRQAPGKGLEWLASVSASSSYIDYRDSVAGRFTISRDNAQNSLYLQMDTLRAEDTAVYYCARTNGYETGSFDVWGQGTLVTVAS
VL: QSVLTQPPSVSGAPGQRVTISCTGSSSNIGAGYDVHWYQQLPGKAPKLLINANNNRPSGVPDRFSGSNSGTSASLAITGLQAEDEADYYCQSYDKTLSGYVFGLGTTVTVL
notes: VH and VL only
B14: MPK141 (antibody, V domains shown)
VH: EVQLVESGGGLVKPGGSLRLSCAASGFTISGYYMTWIRQAPGKGLEWISYISGSSSYTNYADSVKGRFTISRDNGRNSVYLQMNSLRADDTGVYYCAREETPSPGPFDSWGQGILVTVSS
VL: QSVLTQPPSVSGAPGQRIIISCIGSSSNIGTGYDVHWYQQLPGRAPKLLISRNTNRPSGIPDRFSGSKSGTSASLAITGLQADDEADYYCQSYDRGLDGWVFGGGTKLTVL
notes: VH and VL only
B15: MPK86 (antibody, V domains shown)
VH: EVQLVESGGGLVKPGGSLRLSCAASGFSISGYYMIWIRQAPGRGLEWISDISASSTYTDYADSVKGRFTISRDNGQNTVYLQMNNLRADDTALYYCATEQTPSPGPFDLWGQGTLVTVSS
VL: QSVVTQPPSVSGAPGQRVIISCSGRSSNIGAGYDVHWYQHFPGTSPKLLIYRNTNRPSGVPDRFSASTSATSASLAITGLQADDEADYYCQSYDRNLGGWVFGGGTKLTVL
notes: VH and VL only
B16: MPK126 (antibody, V domains shown)
VH: EVQLVESGGGLVKPGGSMRLSCAASGVTLSGYYMIWIRQAPGKGLEWISDISASSTYTDYADSVKGRFTVSRDNSQNTVYLQMNSLRAEDTAVYYCATEQTPSPGPFDLWGQGTLVTVSS
VL: QSVLTQPPSVSGAPGQRVTISCTGSSSNVGAGYDVHWYQQFPGTSPKLLIYRNTNRPSGVPDRFSGFKSGTSASLAITGLEAEDEADYYCQSYDRSLSGWVFGAGTKLTVL
notes: VH and VL only
B17: MPK136 (antibody, V domains shown)
VH: EVQLVESGGGLVKPGGSLRLSCEASGFSLSGYYMIWIRQAPGKGLEWISSISGSGNYINYADSVKGRFTVSRDNGHNTLYLQMNSLRVEDTAVYYCATEQTPSPGPFDHWGQGTLVTVSS
VL: QVQLVQPPSVSGAPGQRVSISCTGTSSNIGTGYDVHWYQQFPGTSPKLLIYRNTNRPSGVPDRFSGSKSGSSASLAIAGLQAEDEADYYCQSYDRSVSGWVFGGGTKLTVL
notes: VH and VL only
B18: MPK10 (antibody, V domains shown)
VH: EVQLVQSGGGLVKPGGSLRLSCAASGFRFSGYFMIWIRQAPGKGLEWISFISGGSSYTNYADSVKGRFTISRDNVQNTLFLDMNSLRAEDTGVYFCATEQVPTPGPFDLWGQGSLVTVSS
VL: QSVLTQPPSVSGVPGQRVIISCTGSSSNIGAGYDVHWYQQFPGRSPTLLIYRNTNRPSGVPDRFSGFQSGSSASLAITGLQAEDEADYYCQSFDRTLDGWAFGGGTKVTVL
notes: VH and VL only
B19: MPK133 (antibody, V domains shown)
VH: QVQLVQSGGGLVKPGGSLRLSCAASEFSFSGYFMIWIRQAPGKGLEWISYISGSSTYTNYADSVKGRFTISRDNAQNTLYLEMNSLRAEDTGVYYCATEQVPSPGPFDLWGQGTLVTVSS
VL: QSVLTQPPSVSGAPGQRVTISCTGSSSNIGAGYDVHWYQQFPGRSPTLLIYRNTNRPSGVPDRFSGSQSGSSASLAITGLQAEDEADYYCQSYDRTLSGWAFGGGTKVTVL
notes: VH and VL only
B20: MPK92 (antibody, V domains shown)
VH: EVQLVESGGGLVKPGGSLRLSCEASGISLSGYYMIWIRQAPGKGLEWISSISSSSNYIDYADSVRGRFTISRHNGQNTLYLQMNSLRVEDTAVYFCATEQTPSPGPFELWGQGILVTVSS
VL: QSVLTQPPSVSGAPGQRVTIFCTGTTSNIGTGYDVHWYQQFPGTSPKLLIYRNTNRPSGVPDRFSGSRSGSSASLAIAGLQAEDEADYYCQSFDRSVNGWIFGGGTKVTVL
notes: VH and VL only
B21: MPK108 (antibody, V domains shown)
VH: EVQLVESGGGLVRPGQSLRLSCTASGFSISGYFMIWVRQAPGKGLEWISYVSASSTYTNYADSVRGRFTTSRDNGQNSLFLQMDSLTAEDTGVYFCAREQTPSPGPFDSWGQGVLVTVSS
VL: QSVLTQPPSLSGAPGQRITISCTGTSSNIGAGYDVHWYQYLPGTAPKLVIYRNTNRPSGVSGRFSGSKSGTSASLAITGLQTEDEADYYCQSYDKKLDGWVFGGGTKLTVL
notes: VH and VL only

The test deals with RSV fusion glycoprotein (RSV-F) (respiratory syncytial virus). The experiment in a line: SPR; F protein loaded on streptavidin sensors, mAb in solution.
Experimental: Binding affinity of mAbs for RSV-F protein, MPV-F D280 protein, and MPV-F N280 F variant protein was assessed using surface plasmon resonance (SPR).
Take B1: binding was characterised by a dissociation constant (Kd) of 0.016 nM.
The figure for B2 is 0.096 nM; for B3 it is 0.001 nM.
B4 showed a Kd of 0.01 nM.
Regarding B5, binding was put at a Kd of 0.0056 nM.
The figure for B6 is 0.0059 nM; for B7 it is 0.15 nM.
In turn, B8 yielded a Kd of 0.083 nM.
B9 registered a Kd of 0.47 nM.
On to B10, for which the Kd amounted to 0.04 nM.
The figure for B11 is 0.012 nM; for B12 it is 100 nM.
The figure for B13 is 1.7 nM; for B14 it is 0.13 nM; for B15 it is 0.001 nM.
In turn, B16 yielded a Kd of 0.001 nM.
The figure for B17 is 0.001 nM.
Take B18: the Kd worked out at 0.012 nM.
The figure for B19 is 0.001 nM.
The figure for B20 is 0.098 nM; for B21 it is 0.58 nM.

For the origin of these results see patent US20260028391A1 (HUMABS BIOMED, published 2026).
